Changes are numbered by the printed parent chain.
B1: mab002c (antibody, V domains shown)
VH: QIQLVQSGPELKKPGETVKISCRASGYSFTDYSMHWVKQAPGKGLKWVGWINTETGEPTYADDFKGRFALSLETSATSAYLQINNLKNEDTATYFCARGGDGFPYWYFNVWGAGTTVTVSS
VL: DIVLTQSPTSLAVSLGQRTNISCRASQSVSTSSNSYIHWYQQKPGQPPKLLIKYASNLDSGVPARFSGSGSGTDFTLNIHPVEEEDTSTYYCQHSWEIPFTFGSGTKLEIK
B2: Hu005-07 (antibody, IgG1, V domains shown)
VH: QVQLQESGPGLVKPSETLSLTCTVSGGSITNYGVHWIRQPPGKGLEWIGVIWSGESTDYDAAFISRVTISKDNSKNQVSLKLSSVTAADTAVYYCARRRSHYYGYVMDYWGQGTTVTVSS
VL: DIVLTQSPASLAVSPGQRATITCKASQSIDYDAIGYLNWYQHKPGQPPKLLIYAASNLESGVPARFSGSGSGTDFTLTINPVEANDTANYYCQQSNEDPPTFGQGTKLEIK
notes: Humanized IgG1; also called hu005-07(BM5)
B3: Hu005-04 (antibody, human IgG1, kappa, V domains shown)
VH: B2 VH with E6Q, I29L
VL: DIVLTQSPASLAVSPGQRATITCKASQSIDYDAIGYLNWYQQKPGQPPKLLIYAASNLESGVPARFSGSGSGTDFTLTINPVEANDTANYYCQQSNEDPPTFGQGTKLEIKR
notes: Humanized IgG1; also called hu005-04(BM6)
B4: Hu005-24 (antibody, IgG1, V domains shown)
VH: B2 VH with E6Q, I29L
VL: DIQMTQSPSSLSASVGDRVTITCKASQSIDYDAIGYLNWYQQKPGKAPKLLIYAASNLESGVPSRFSGSGSGTDFTLTISSLQPEDFATYYCQQSNEDPPTFGQGTKLEIK
notes: Humanized IgG1; also called hu005-24(BM6)
B5: Hu005-03 (antibody, IgG1, V domains shown)
VH: B2 VH
VL: B2 VL with H42Q
notes: Humanized IgG1; also called hu005-03(BM4)
B6: Hu005-08 (antibody, IgG1, V domains shown)
VH: B2 VH with E6Q, I29L
VL: B2 VL
notes: Humanized IgG1; also called hu005-08(BM7)
B7: mab016c (antibody, V domains shown)
VH: QVQLKQSGPGLVQPSQSLSITCTVSGFSLTSYGVHWVRQSPGKGLEWLGVIWSGESTDYDAAFISRLSISKDNSKSQVFFRMNSLQADDSAIYYCARRRSHYYGYVMDYWGQGTSVTVSS
VL: DIVLTQSPASLAVSLGQRATISCKASQSVDYDGVGYLNWYQHKPGQPPKLLIYAASNLESGIPARFSGSGSGTDFTLNIHPVEEEDAATYYCQQSNEDPPTFGSGTKLEIK
B8: mab005c (antibody, V domains shown)
VH: B7 VH with S31N, R81K
VL: B7 VL with V29I, V34I
B9: mAb028 (antibody, V domains shown)
VH: DVQLQESGPGLVKPSQSLSLTCSVTGYSISSGYYWNWIRQFPGNKLECMGYISYDGSNYYNPSLKNRISITRDTSKNQFFLSLNSVTTEDTATYFCVRGGDYDDGGFAYWGQGTLVTVSA
VL: DIQMTQSPASLSASVGETVTITCRASGNIHNYLAWYQQKQGKSPQLLVYNAKTLADGVPSRFSGSGSETQYSLKINSLQPEDFGNYFCQHFWIIPYTFGGGTKLEIK
notes: Mouse hybridoma antibody
B10: mab033c (antibody, V domains shown)
VH: EVQMVESGGDLVKPGDSLKLSCAASGFTFRSYGMSWVRQTPDKRLEWVATISSGDSYTYYPDSVKGRFTISRDNAKNTLYLQMSSLKSEDTALYYCARQIYYDYAYYFDFWGQGTTLTVSS
VL: DIVLTQSPASLAVSLGQRATISCRASESVSFRTSHLMHWYQQKPGQPPKLLIYGASNLESGVPARFSGSGSETDFTLNIHPVEEEDAAAYFCQQSIEDPPTFGGGTKLEIK

Key:
[1] = target: T1, human BDCA2 (human, UniProt Q8WTT0 1-213); assay: FACS on CHOK1-hBDCA2 cells; EC50 table under the plot, unit from the x axis (nM)
T1 construct: whole, on cells; also called hBDCA2; Blood dendritic cell antigen 2
T1 sequence (looked up): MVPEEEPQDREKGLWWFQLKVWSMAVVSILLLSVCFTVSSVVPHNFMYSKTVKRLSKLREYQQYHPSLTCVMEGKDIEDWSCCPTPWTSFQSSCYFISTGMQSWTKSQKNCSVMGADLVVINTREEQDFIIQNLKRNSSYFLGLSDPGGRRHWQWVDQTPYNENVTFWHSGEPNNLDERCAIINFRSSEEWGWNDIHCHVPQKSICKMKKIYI
Method: (§1) The cells were recovered and resuspended to 2×10⁶/mL with FACS buffer (PBS+2% FBS). The cells were added to 3799 cell plates (Corning) at 100 μL/well, and the supernatant was discarded after centrifugation at 300 g. The antibodies were serially diluted with FACS buffer (Id.), the diluted antibodies were added to centrifuged cells and the cells were resuspended. The cells were incubated at 4° C. for 1 h. The incubated cells were centrifuged at 300 g for 5 min and washed twice with FACS buffer. 100 μL […] anti-Human IgG (H+L) Cross-Adsorbed Secondary Antibody-Alexa Fluor 488 (Sigma, A11013; 1:1000) secondary antibody was added, washed twice with FACS buffer after incubation at 4° C. for 1 h, resuspended with PBS, analyzed with FACS (BD FACS CantoTM II) instrument and curve fitted with GraphPad Prism6, and EC₅₀ values were calculated.

[2] = target: T2, cynomolgus BDCA2 (cynomolgus monkey, UniProt A0A2K5UWP4 1-212); assay: FACS, 293F-cynoBDCA2 cells
T2 construct: whole, on cells; also called Cyno BDCA2; cynoBDCA2
T2 sequence: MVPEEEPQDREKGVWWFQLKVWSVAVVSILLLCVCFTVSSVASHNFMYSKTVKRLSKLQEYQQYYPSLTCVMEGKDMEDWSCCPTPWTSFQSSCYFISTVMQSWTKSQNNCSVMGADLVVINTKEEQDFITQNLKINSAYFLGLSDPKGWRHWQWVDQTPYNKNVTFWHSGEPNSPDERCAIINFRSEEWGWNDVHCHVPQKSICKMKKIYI

[3] = target: T1, human BDCA2; assay: FACS, CHOK1-humanBDCA2 cells
Method: (§2) The cells were recovered and resuspended to 2×10⁶/mL with FACS buffer (PBS+2% FBS). The resuspended cells were added to 3799 cell plates at 100 μL/well, and the supernatant was discarded after centrifugation at 300 g. […] The cells were incubated at 4° C. for 1 h. The incubated cells were centrifuged at […] for 5 min and washed twice with FACS buffer. 100 μL Goat anti-Human IgG (H+L) Cross-Adsorbed Secondary Antibody, Alexa Fluor 488 (Sigma, A11013; 1:1000) secondary antibody was added, washed twice with FACS buffer after incubation at 4° C. for 1 h. The cells were resuspended with PBS, then the fluorescence signal of antibodies bound to cell surface was analyzed with FACS (BD FACS CantoTM II) instrument and curves were fitted with GraphPad Prism6 to calculate EC₅₀ values for antibodies binding to BDCA2 antigen.

[4] = target: T1, human BDCA2; assay: cell-based or functional assay
[5] = target: T3, Human BDCA2 Fc recombinant protein (human); assay: ELISA, coated humanBDCA2 Fc
T3 construct: Human IgG1 Fc N-terminal of the BDCA2 extracellular domain (Asn45-Ile213), fused by a linker; also called BDCA2-Fc protein
Method: HumanBDCA2 Fc protein or cynoBDCA2 His protein was diluted with PBS to 1 μg/mL and added to ELISA microplates at 100 μL/well and incubated at 4° C. overnight. The plates were blocked with ELISA blocking solution (PBS phosphate buffer with 1% BSA, pH 7.4, the percentages representing mass percentages) at 37° C. for 2 hours. Sequential 10-fold serial dilutions of antibodies were added at 8 concentrations (0.0001 nM-100 nM, including 0 point control) in total at 100 μL/well. The plates were incubated at 37° C. for 1 hour, then washed 3 times and after anti-mouse IgG (Fab specific)-HRP (Sigma, A3682; 1: 5000 dilution) secondary antibodies were added at 100 μL/well, were incubated at 37° C. for 1 h. The plates were washed 3 times, TMB development fluid (EL0009, Huzhou Ying Chuang Biotechnology) was added at 100 μL/well and 50 μL 1N hydrochloric acid was added after incubation at 37° C. for 10 min to stop the development reaction. OD450 nm values were read with ELISA plate reader and the curve was fitted with GraphPad Prism6, and EC₅₀ values were calculated.

[6] = target: T1, human BDCA2; assay: FACS on CHOK1-hBDCA2 cells; EC50 table under the plot, unit from the x axis (nM) [continued) d.]
Method: (§3) The cells were recovered and resuspended to 2×10⁶/mL with FACS buffer (PBS+2% FBS). The cells were added to 3799 cell plates (Corning) at 100 μL/well, and the supernatant was discarded after centrifugation at 300 g. The antibodies were serially diluted with FACS buffer (Id.), the diluted antibodies were added to centrifuged cells and the cells were resuspended. The cells were incubated at 4° C. for 1 h. The incubated cells were then centrifuged at […] for 5 min and washed twice with FACS buffer. 100 μL Donkey anti-Mouse IgG (H+L) Highly Cross-Adsorbed Secondary Antibody-Alexa Fluor 488 (Invitrogen, A21202; 1:1000) secondary antibody was added to the cells, which were washed twice with FACS buffer after incubation at 4° C. for 1 h, resuspended with PBS, analyzed with FACS (BD FACS CantoTM II) instrument. The curve was fitted with GraphPad Prism6, and EC₅₀ values were calculated.

[7] = target: T2, cynomolgus BDCA2; assay: FACS on 293F-cynoBDCA2 cells; EC50 table under the plot, unit from the x axis (nM) [continued) d.]
Method: as §3

[8] = target: T1, human BDCA2; assay: cell-based or functional assay; remark: listed apart in the source
[9] = target: T2, cynomolgus BDCA2; assay: FACS, 293F-cynoBDCA2 cells; remark: listed apart in the source
Method: as §2

[10] = target: T1, human BDCA2; assay: FACS, CHOK1-humanBDCA2 cells; remark: listed apart in the source
Method: as §2

[11] = target: T4, Recombinant Human BDCA2 (human, UniProt Q8WTT0 45-213, limits assumed); assay: SPR (BIAcore), antibody captured by anti-human IgG (Fc), hBDCA2 as analyte, 1:1 model
T4 construct: also called hBDCA2 (SPR analyte); human BDCA2 antigen
T4 sequence (looked up): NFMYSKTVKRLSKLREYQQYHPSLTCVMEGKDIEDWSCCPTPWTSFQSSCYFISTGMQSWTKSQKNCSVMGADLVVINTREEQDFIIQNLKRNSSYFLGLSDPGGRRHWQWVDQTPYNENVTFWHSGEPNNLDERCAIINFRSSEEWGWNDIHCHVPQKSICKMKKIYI
Method: Then 1 M ethanolamine was injected at 10 μL/min flow rate for 420 seconds, and the excess active carboxyl groups on chip were blocked. The humanized antibodies were injected into a detection channel flow cell at flow rate of 10 μL/min for 60 s for capture after diluting to 1 μg/mL using running buffer. […] The sample hBDCA2 to be tested of each concentration gradient was injected into the detection channel at 30 μL/min flow rate, two samples at 0 concentration were used to remove background signal. The binding and dissociation times between antigen and antibody were 180 and 400 sec, respectively. An analysis of data was performed using Biacore Insight Evaluation Software (Version 2.0. 15.12933). A 1:1 binding model was selected for curve fitting and kinetic parameters were calculated after subtraction of signal of the reference channel (flow cell 1) and at 0 concentration.

[12] = target: T1, human BDCA2; assay: FACS on CHOK1-hBDCA2 cells; EC50 table beside the plot, unit from the x axis (nM) [continued) c.]
Method: as §1

Row | Binder | EC50 [1] | binding result [2] | EC50 [3] | also measured
1 | B1 | 1.61 nM |  |  | 
2 | B2 |  | binds | 2 nM | 
3 | B3 |  | binds | 2.3 nM | 
4 | B4 |  | binds | 1.9 nM | 
5 | B5 |  | binds | 2.1 nM | 
6 | B6 |  | binds | 2.3 nM | 
7 | B7 | 0.977 nM |  |  | 
8 | B8 | 0.964 nM |  | 2.2 nM | IC50, inhibition of IFNα secretion, CpG-A stimulated human PBMC [4]: 0.00836 nM
9 | B9 |  |  |  | EC50 [5]: < 0.3 nM; EC50 [6]: 0.251 nM; EC50 [7]: 0.28 nM
10 | B10 |  |  |  | IC50, inhibition of IFNα secretion, CpG-A stimulated human PBMC [4]: 0.00833 nM; EC50 (nM), inhibition of CpG-A stimulated IFNα release from human PBMC [8]: 0.02 nM; EC50 [9]: 0.56 nM; EC50 [10]: 0.26 nM; Kd [11]: 0.11 nM; koff [11]: 7.67e-05 s⁻¹; kon [11]: 698000 M⁻¹ s⁻¹; EC50 [12]: 0.277 nM

Source: US20250346673A1 (DUALITY BIOLOGICS SUZHOU, published 2025)
